Publication PMC13276077

What was measured:
[1] = biological target: MeCP2 full-length, e2 isoform;histone H1.0 25-97;histone octamer (Homo sapiens;Homo sapiens;, UniProt P51608;P07305;P0C0S8;P62807;P68431;P62805 1-486;25-97;2-130;2-126;2-136;2-103, ||H2B T115C;H3.1 C96S;C110A); test: EMSA; H1.0 residues 25-97 pre-bound (chromatosome); 20 mM HEPES pH 7.5, 75 mM NaCl, 125 mM KCl, 50 uM EDTA, 2.5 mM beta-mercaptoethanol, 5% glycerol, BSA, 1.58 uM 47 bp competitor DNA (nucleosome assays); absent w
[2] = biological target: T1, MeCP2 MBD;histone octamer, H3Kc27me3 (Homo sapiens;Homo sapiens, UniProt P51608;P0C0S8;P62807;P68431;P62805 77-167;2-130;2-126;2-136;2-103, |H3.1 K27C (trimethyl-lysine analogue, Kc27me3);C96S;C110A); test: EMSA; H3K27me3 (H3Kc27me3) histone octamer; 20 mM HEPES pH 7.5, 75 mM NaCl, 125 mM KCl, 50 uM EDTA, 2.5 mM beta-mercaptoethanol, 5% glycerol, BSA, 1.58 uM 47 bp competitor DNA (nucleosome assays); absent w
[3] = biological target: T2, MeCP2 MBD;histone octamer (Homo sapiens;Homo sapiens, UniProt P51608;P0C0S8;P62807;P68431;P62805 77-167;2-130;2-126;2-136;2-103, |H3.1 C96S;C110A); test: EMSA; 20 mM HEPES pH 7.5, 75 mM NaCl, 125 mM KCl, 50 uM EDTA, 2.5 mM beta-mercaptoethanol, 5% glycerol, BSA, 1.58 uM 47 bp competitor DNA (nucleosome assays); absent w
[4] = biological target: MeCP2 full-length, e2 isoform;histone octamer (Homo sapiens;, UniProt P51608;P0C0S8;P62807;P68431;P62805 1-486;2-130;2-126;2-136;2-103, |H2B T115C;H3.1 C96S;C110A); test: as above
[5] = biological target: MeCP2 full-length, e2 isoform;histone H1.0 1-97;histone octamer (Homo sapiens;Homo sapiens;, UniProt P51608;P07305;P0C0S8;P62807;P68431;P62805 1-486;1-97;2-130;2-126;2-136;2-103, ||H2B T115C;H3.1 C96S;C110A); test: EMSA; H1.0 residues 1-97 pre-bound (chromatosome); 20 mM HEPES pH 7.5, 75 mM NaCl, 125 mM KCl, 50 uM EDTA, 2.5 mM beta-mercaptoethanol, 5% glycerol, BSA, 1.58 uM 47 bp competitor DNA (nucleosome assays); absent w
[6] = biological target: T3, MeCP2 MBD;histone octamer, tailless H3 (Homo sapiens;Homo sapiens, UniProt P51608;P0C0S8;P62807;P68431;P62805 77-167;2-130;2-126;26-136;2-103, |H3.1 del1-24;A25C;C96S;C110A); test: EMSA; H3-tailless histone octamer; 20 mM HEPES pH 7.5, 75 mM NaCl, 125 mM KCl, 50 uM EDTA, 2.5 mM beta-mercaptoethanol, 5% glycerol, BSA, 1.58 uM 47 bp competitor DNA (nucleosome assays); absent w
HisMBP-MeCP2 272-309 = HisMBP-MeCP2 272-309 (Homo sapiens, UniProt P51608 272-309); test: EMSA; 20 mM HEPES pH 7.5, 75 mM NaCl, 125 mM KCl, 50 uM EDTA, 2.5 mM beta-mercaptoethanol, 5% glycerol, BSA, 1.58 uM 47 bp competitor DNA (nucleosome assays; absent with free DNA), room temperature 30 min; conditions: protein: recombinant; tags: His-MBP; label: 5' 6-FAM; blunt
[7] = biological target: HisMBP-MeCP2 205-257 (DIR) (Homo sapiens, UniProt P51608 205-257); test: as above; conditions: protein: recombinant; tags: His-MBP; label: 5' 6-FAM; blunt
HisMBP-MeCP2 258-309 = HisMBP-MeCP2 258-309 (Homo sapiens, UniProt P51608 258-309); test: as above; conditions: protein: recombinant; tags: His-MBP; label: 5' 6-FAM; blunt
[8] = biological target: HisMBP-DNMT3A 1-427 K54A K56A (UniProt Q9Y6K1 1-427, K54A;K56A); test: as above; conditions: protein: recombinant; tags: His-MBP; label: 5' 6-FAM; blunt
HisMBP-MeCP2 205-309 = HisMBP-MeCP2 205-309 (Homo sapiens, UniProt P51608 205-309); test: as above; conditions: protein: recombinant; tags: His-MBP; label: 5' 6-FAM; blunt
HisMBP-DNMT3A 1-427 = HisMBP-DNMT3A 1-427 (UniProt Q9Y6K1 1-427); test: as above; conditions: protein: recombinant; tags: His-MBP; label: 5' 6-FAM; blunt
HisMBP-MeCP2 162-309 = HisMBP-MeCP2 162-309 (Homo sapiens, UniProt P51608 162-309); test: as above; conditions: protein: recombinant; tags: His-MBP; label: 5' 6-FAM; blunt
[9] = biological target: MeCP2 full-length, e2 isoform;histone octamer (Homo sapiens;Homo sapiens, UniProt P51608;P0C0S8;P62807;P68431;P62805 1-486;2-130;2-126;2-136;2-103, |H3.1 C96S;C110A); test: EMSA; no competitor DNA; 20 mM HEPES pH 7.5, 75 mM NaCl, 125 mM KCl, 50 uM EDTA, 2.5 mM beta-mercaptoethanol, 5% glycerol, BSA, 1.58 uM 47 bp competitor DNA (nucleosome assays); absent w
[10] = biological target: T2, MeCP2 MBD;histone octamer; test: as above
[11] = biological target: T3, MeCP2 MBD;histone octamer, tailless H3; test: EMSA; H3-tailless histone octamer; no competitor DNA; 20 mM HEPES pH 7.5, 75 mM NaCl, 125 mM KCl, 50 uM EDTA, 2.5 mM beta-mercaptoethanol, 5% glycerol, BSA, 1.58 uM 47 bp competitor DNA (nucleosome assays); absent w
[12] = biological target: MeCP2 full-length, e2 isoform;histone octamer, tailless H3 (Homo sapiens;Homo sapiens, UniProt P51608;P0C0S8;P62807;P68431;P62805 1-486;2-130;2-126;26-136;2-103, |H3.1 del1-24;A25C;C96S;C110A); test: as above
[13] = biological target: MeCP2 full-length, e2 isoform;histone octamer, acidic patch mutant (Homo sapiens;Homo sapiens, UniProt P51608;P0C0S8;P62807;P68431;P62805 1-486;2-130;2-126;2-136;2-103, |H2A E61A;E91A;E92A;H2B E113A;H3.1 C96S;C110A); test: EMSA; acidic patch mutant histone octamer; no competitor DNA; 20 mM HEPES pH 7.5, 75 mM NaCl, 125 mM KCl, 50 uM EDTA, 2.5 mM beta-mercaptoethanol, 5% glycerol, BSA, 1.58 uM 47 bp competitor DNA (nucleosome assays); absent w
[14] = biological target: MeCP2 MBD;histone octamer, acidic patch mutant (Homo sapiens;Homo sapiens, UniProt P51608;P0C0S8;P62807;P68431;P62805 77-167;2-130;2-126;2-136;2-103, |H2A E61A;E91A;E92A;H2B E113A;H3.1 C96S;C110A); test: as above
[15] = biological target: MeCP2 full-length, e2 isoform;histone octamer, H3Kc27me3 (Homo sapiens;Homo sapiens, UniProt P51608;P0C0S8;P62807;P68431;P62805 1-486;2-130;2-126;2-136;2-103, |H3.1 K27C (trimethyl-lysine analogue, Kc27me3);C96S;C110A); test: EMSA; H3K27me3 histone octamer; no competitor DNA; 20 mM HEPES pH 7.5, 75 mM NaCl, 125 mM KCl, 50 uM EDTA, 2.5 mM beta-mercaptoethanol, 5% glycerol, BSA, 1.58 uM 47 bp competitor DNA (nucleosome assays); absent w
[16] = biological target: T1, MeCP2 MBD;histone octamer, H3Kc27me3; test: as above

Chain of HisMBP-DNMT3A 1-427 (Q9Y6K1 1-427): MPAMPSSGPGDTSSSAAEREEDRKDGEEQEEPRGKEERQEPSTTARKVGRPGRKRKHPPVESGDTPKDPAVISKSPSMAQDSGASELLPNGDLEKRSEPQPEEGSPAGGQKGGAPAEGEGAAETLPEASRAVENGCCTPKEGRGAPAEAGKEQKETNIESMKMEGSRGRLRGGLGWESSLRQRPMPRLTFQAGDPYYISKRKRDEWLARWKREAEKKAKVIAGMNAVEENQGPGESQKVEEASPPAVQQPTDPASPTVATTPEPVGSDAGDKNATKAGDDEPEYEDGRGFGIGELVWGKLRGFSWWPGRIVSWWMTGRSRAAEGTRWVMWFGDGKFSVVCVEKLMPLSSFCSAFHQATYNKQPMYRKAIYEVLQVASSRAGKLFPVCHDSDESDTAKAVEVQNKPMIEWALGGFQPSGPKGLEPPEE
Chain of HisMBP-DNMT3A 1-427 K54A K56A (Q9Y6K1 1-427 K54A/K56A): as the sequence (Q9Y6K1 1-427) above, with K54A, K56A counted along it

B1: 15-N601-15 nucleosome 81 meCpA (nucleosome)
DNA 1: ATGGAACACATTGCACAGGATGTATATATCTGACACGTGCCTGGAGACTAGGGAGTAATCCCCTTGGCGGTTAAAACGCGGGGGACAGCGCGTACGTGCGTTTAAGCGGTGCTAGAGCTGTCTACGACCAATTGAGCGGCCTCGGCACCGGGATTCTCCAGGGCGGCCGCGTATT
DNA 2: AATACGCGGCCGCCCTGGAGAATCCCGGTGCCGAGGCCGCTCAATTGGTCGTAGACAGCTCTAGCACCGCTTAAACGCACGTACGCGCTGTCCCCCGCGTTTTAACCGCCAAGGGGATTACTCCCTAGTCTCCAGGCACGTGTCAGATATATACATCCTGTGCAATGTGTTCCAT
modifications: linker meCpA 81 bp from dyad
Question: With B1 as the binder, how does the Kd [1] read?
Answer: 295 nM

Question: And the Kd [2]?
Answer: 442 nM

Question: And the Kd [3]?
Answer: 424 nM

Question: And the Kd [4]?
Answer: 141 nM

Question: And the Kd [5]?
Answer: 382 nM

Question: What about the Kd [6] of the same binder?
Answer: 334 nM

B2: 40 bp dsDNA (dsDNA)
DNA 1: AATACGCGGCCGCCCTGGAGAATCCCGGTGCCGAGGCCGC
DNA 2: GCGGCCTCGGCACCGGGATTCTCCAGGGCGGCCGCGTATT
Question: Does B2 bind (HisMBP-MeCP2 272-309)?
Answer: no binding

Question: And the Kd [7]?
Answer: 216 ± 9.2 nM

Question: What about the Kd (HisMBP-MeCP2 258-309) of the same binder?
Answer: 167 ± 8.5 nM

Question: What about the Kd [8] of the same binder?
Answer: 367 ± 27.5 nM

Question: And the Kd (HisMBP-MeCP2 205-309)?
Answer: 77.5 ± 4.8 nM

Question: And the Kd (HisMBP-DNMT3A 1-427)?
Answer: 87.8 ± 5.2 nM

Question: And the Kd (HisMBP-MeCP2 162-309)?
Answer: 31.6 ± 1.7 nM

B3: N601 nucleosome core particle -1 meCpG (nucleosome)
DNA 1: CAGGATGTATATATCTGACACGTGCCTGGAGACTAGGGAGTAATCCCCTTGGCGGTTAAAACGCGGGGGACAGCGCGTACGTGCGTTTAAGCGGTGCTAGAGCTGTCTACGACCAATTGAGCGGCCTCGGCACCGGGATTCTCCA
DNA 2: TGGAGAATCCCGGTGCCGAGGCCGCTCAATTGGTCGTAGACAGCTCTAGCACCGCTTAAACGCACGTACGCGCTGTCCCCCGCGTTTTAACCGCCAAGGGGATTACTCCCTAGTCTCCAGGCACGTGTCAGATATATACATCCTG
modifications: meCpG at -1
Question: Which results are given for B3?
Answer: Kd [9]: 44.2 nM; Kd [10]: 50.7 nM; binding result [4]: no binding; Kd [11]: 35.5 nM; Kd [12]: 29.2 nM; Kd [13]: 49.7 nM; Kd [14]: 51.5 nM; Kd [15]: 56.8 nM; Kd [16]: 85.5 nM
